Reference: PMC11419155 (bioRxiv, 2024)

B1: recombinant Fab 3H4 (Fab, V domains shown)
VH: QVQLKESGPGLVAPSQSLSISCTVSGFSLTTFGIHWIRQPPGKGLEWLGVIWAAGTTNYNSTLKSRLTITKDNSRSQVFLKMNSLQTYDTAIYYCVREDYDYFFGLDYWGQGTSVTVSS
VL: QAVVTQESALTTSPGETVTLTCRSSTGAVTTSNYASWVQEKPDHLFIGLIGGTNNRAPGVPARFSGSLIGDKAALTITGAQTDDEAIYFCALWFSNHWVFGGGTKLTVL
B2: recombinant Fab 3B4 (Fab, V domains shown)
VH: QVQLHQPGAELVKPGASVNLSCKASGYTFTSYWMHWVKQRPGQGLEWIGEINPSSGRANYNEKFKNKATLTVDKSSITAYMHLSSLTSEDSAVYYCHWDYYAMDYWGQGTSVTVSS
VL: DIVLTQSPATLSVTPGDSVSLSCRASQSISNNLHWYQQKSHESPRLLFKSASQSISGIPSRFSGSGSGTDFTLSINSVETEDFGMYFCQQTNSWPLTFGTGTKLDLK

Target: recombinant HAstV1 capsid spike, histidine-tagged (Human astrovirus 1 (AAC34717.1), UniProt O12792)
Sequence (O12792 429-645): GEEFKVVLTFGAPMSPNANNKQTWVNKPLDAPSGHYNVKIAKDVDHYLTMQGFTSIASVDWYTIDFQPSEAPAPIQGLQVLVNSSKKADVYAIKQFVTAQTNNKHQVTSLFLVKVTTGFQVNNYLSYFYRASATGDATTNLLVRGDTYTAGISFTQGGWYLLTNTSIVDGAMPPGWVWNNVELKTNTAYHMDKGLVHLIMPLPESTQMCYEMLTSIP
Test: BLI

Binder | Kd [nM]
B1 | 0.49
B2 | 11.8
